Assays:
HLA-A*26:01 [1] = assay: IEDB peptide-MHC binding, purified MHC/competitive/fluorescence; filed as Kd, often an IC50 or EC50 that approximates it; ≥ and ≤ were set here for values at or beyond the usual limits of such assays
HLA-B*18:01 = assay: IEDB peptide-MHC binding, purified MHC/direct/fluorescence; filed as Kd, often an IC50 or EC50 that approximates it; ≥ and ≤ were set here for values at or beyond the usual limits of such assays
HLA-B*44:02 = assay: as above
HLA-B*44:03 = assay: IEDB peptide-MHC binding, purified MHC/competitive/radioactivity; filed as Kd, often an IC50 or EC50 that approximates it; ≥ and ≤ were set here for values at or beyond the usual limits of such assays
HLA-B*15:01 [2] = assay: as above; details: source organism: Dengue virus 1 Brazil/97-11/1997
HLA-A*11:01 = assay: IEDB peptide-MHC binding, purified MHC/direct/fluorescence; filed as Kd, often an IC50 or EC50 that approximates it; ≥ and ≤ were set here for values at or beyond the usual limits of such assays
HLA-A*24:03 = assay: as above
HLA-B*40:01 [3] = assay: as above
HLA-B*58:01 = assay: as above
HLA-A*03:01 [4] = assay: as above
HLA-B*27:05 = assay: as above
HLA-B*15:01 [5] = assay: as above
HLA-A*69:01 = assay: as above
HLA-A*26:01 [6] = assay: as above
HLA-A*31:01 = assay: as above
HLA-B*07:02 [7] = assay: as above
HLA-A*02:01 = assay: as above
HLA-B*08:01 = assay: as above
HLA-B*53:01 = assay: IEDB peptide-MHC binding, purified MHC/competitive/radioactivity; filed as Kd, often an IC50 or EC50 that approximates it; ≥ and ≤ were set here for values at or beyond the usual limits of such assays
HLA-B*35:01 = assay: as above
HLA-B*51:01 = assay: as above
HLA-B*07:02 [8] = assay: as above
HLA-B*54:01 = assay: as above
HLA-A*03:01 [9] = assay: IEDB peptide-MHC binding, purified MHC/competitive/fluorescence; filed as Kd, often an IC50 or EC50 that approximates it; ≥ and ≤ were set here for values at or beyond the usual limits of such assays
HLA-B*40:01 [10] = assay: IEDB peptide-MHC binding, purified MHC/competitive/radioactivity; filed as Kd, often an IC50 or EC50 that approximates it; ≥ and ≤ were set here for values at or beyond the usual limits of such assays; details: source organism: Dengue virus 2 Jamaica/1409/1983
HLA-A*01:01 = assay: IEDB peptide-MHC binding, purified MHC/direct/fluorescence; filed as Kd, often an IC50 or EC50 that approximates it; ≥ and ≤ were set here for values at or beyond the usual limits of such assays; details: source organism: Bacillus anthracis
[11] = source organism: dengue virus type 2
[12] = source organism: Aggregatibacter actinomycetemcomitans
[13] = source organism: Vaccinia virus WR
[14] = source organism: Salmonella enterica
[15] = source organism: Influenza A virus (A/SW/MN/3227/00(H1N2))
[16] = source organism: Lymphocytic choriomeningitis virus (strain Armstrong)
[17] = source organism: SARS coronavirus Tor2
[18] = source organism: Bacillus anthracis

Sequence: NSIPAVIGY
- Kd (HLA-A*26:01 [1]; source organism: Kurkino virus): 0.42 µM

Sequence: EEEQTLTIL
- Kd (HLA-B*18:01; [11]): 4.02 µM
- Kd (HLA-B*44:02; [11]): ≥ 20 µM

Sequence: QQVPFCSHHF
- Kd (HLA-B*44:03; source organism: Dengue virus 1 Brazil/97-11/1997): 0.272 µM
- Kd (HLA-B*15:01 [2]): 0.0139 µM

Sequence: KYDDRIQSQ
- Kd (HLA-A*11:01; [12]): ≥ 20 µM
- Kd (HLA-A*24:03; [12]): ≥ 20 µM
- Kd (HLA-B*40:01 [3]; [12]): ≥ 20 µM
- Kd (HLA-B*58:01; [12]): ≥ 20 µM
- Kd (HLA-A*03:01 [4]; [12]): ≥ 20 µM
- Kd (HLA-B*27:05; [12]): ≥ 20 µM
- Kd (HLA-B*15:01 [5]; [12]): ≥ 20 µM
- Kd (HLA-A*69:01; [12]): ≥ 20 µM
- Kd (HLA-A*26:01 [6]; [12]): ≥ 20 µM
- Kd (HLA-A*31:01; [12]): ≥ 20 µM
- Kd (HLA-B*07:02 [7]; [12]): ≥ 20 µM
- Kd (HLA-A*02:01; [12]): ≥ 20 µM
- Kd (HLA-B*08:01; [12]): ≥ 20 µM

Sequence: TPTIEDDKIV
- Kd (HLA-B*53:01; [13]): ≥ 29 µM
- Kd (HLA-B*35:01; [13]): ≥ 52.2 µM
- Kd (HLA-B*51:01; [13]): 10.1 µM
- Kd (HLA-B*07:02 [8]; [13]): 19.7 µM
- Kd (HLA-B*54:01; [13]): 3.15 µM

Sequence: AWENTVVDL
- Kd (HLA-A*24:03; source organism: Mammarenavirus lassaense): 1.5 µM

Sequence: AKNPNRFVI
- Kd (HLA-B*53:01; source organism: Variola virus): ≥ 78.1 µM
- Kd (HLA-B*35:01; source organism: Variola virus): ≥ 77.4 µM
- Kd (HLA-B*51:01; source organism: Variola virus): ≥ 77.4 µM
- Kd (HLA-B*07:02 [8]; source organism: Variola virus): 11.9 µM
- Kd (HLA-B*54:01; source organism: Variola virus): ≥ 78.1 µM

Sequence: SVYGLMGFH
- Kd (HLA-A*03:01 [9]; source organism: Canarypox virus): 0.0292 µM

Sequence: KLFFQVIAK
- Kd (HLA-A*03:01 [9]; source organism: Yersinia pestis Antiqua): 0.0065 µM

Sequence: DPVYISQFSY
- Kd (HLA-B*53:01; [13]): 10.5 µM
- Kd (HLA-B*35:01; [13]): 0.928 µM
- Kd (HLA-B*51:01; [13]): ≥ 69.6 µM
- Kd (HLA-B*07:02 [8]; [13]): ≥ 69.6 µM
- Kd (HLA-B*54:01; [13]): ≥ 38.6 µM

Sequence: NERWFREVI
- Kd (HLA-B*18:01; [14]): 0.0052 µM
- Kd (HLA-B*40:01 [3]; [14]): 0.653 µM

Sequence: LEESHPGIF
- Kd (HLA-B*40:01 [3]; [15]): 0.0853 µM
- Kd (HLA-B*44:02; [15]): ≥ 20 µM

Sequence: EPVPLTVKM
- Kd (HLA-B*53:01; [16]): 0.327 µM
- Kd (HLA-B*35:01; [16]): 0.0634 µM
- Kd (HLA-B*51:01; [16]): 12.7 µM
- Kd (HLA-B*07:02 [8]; [16]): 15 µM
- Kd (HLA-B*54:01; [16]): ≥ 69.5 µM

Sequence: VEEDIRWKF
- Kd (HLA-B*18:01; source organism: Bacillus cereus): 0.0192 µM

Sequence: LEFFLIVLLI
- Kd (HLA-B*44:03; source organism: Dengue virus 2 Jamaica/1409/1983): 2.48 µM
- Kd (HLA-B*40:01 [10]): 0.65 µM

Sequence: APSASAFFGM
- Kd (HLA-B*53:01; [17]): 4.11 µM
- Kd (HLA-B*35:01; [17]): 2.14 µM
- Kd (HLA-B*51:01; [17]): 1.99 µM
- Kd (HLA-B*07:02 [8]; [17]): 0.122 µM
- Kd (HLA-B*54:01; [17]): ≥ 42.7 µM

Sequence: DVSEQLELI
- Kd (HLA-A*26:01 [1]; source organism: Escherichia coli): ≥ 20 µM

Sequence: FIFGKMGAG
- Kd (HLA-A*11:01; [18]): ≥ 20 µM
- Kd (HLA-B*40:01 [3]; [18]): ≥ 20 µM
- Kd (HLA-B*44:02; [18]): ≥ 20 µM
- Kd (HLA-B*58:01; [18]): ≥ 20 µM
- Kd (HLA-A*03:01 [4]; [18]): ≥ 20 µM
- Kd (HLA-B*27:05; [18]): ≥ 20 µM
- Kd (HLA-A*01:01): ≥ 20 µM
- Kd (HLA-B*15:01 [5]; [18]): ≥ 20 µM
- Kd (HLA-A*69:01; [18]): ≥ 20 µM
- Kd (HLA-A*26:01 [6]; [18]): 5.37 µM
- Kd (HLA-A*31:01; [18]): ≥ 20 µM
- Kd (HLA-B*07:02 [7]; [18]): ≥ 20 µM
- Kd (HLA-A*02:01; [18]): ≥ 20 µM
- Kd (HLA-B*08:01; [18]): ≥ 20 µM
